Target: nicotinic acetylcholine receptor containing the alpha6 subunit (mouse, native in brain of wild type animals) (mouse), Q9R0W9
Sequence (Q9R0W9 31-494, chain 1 of 2): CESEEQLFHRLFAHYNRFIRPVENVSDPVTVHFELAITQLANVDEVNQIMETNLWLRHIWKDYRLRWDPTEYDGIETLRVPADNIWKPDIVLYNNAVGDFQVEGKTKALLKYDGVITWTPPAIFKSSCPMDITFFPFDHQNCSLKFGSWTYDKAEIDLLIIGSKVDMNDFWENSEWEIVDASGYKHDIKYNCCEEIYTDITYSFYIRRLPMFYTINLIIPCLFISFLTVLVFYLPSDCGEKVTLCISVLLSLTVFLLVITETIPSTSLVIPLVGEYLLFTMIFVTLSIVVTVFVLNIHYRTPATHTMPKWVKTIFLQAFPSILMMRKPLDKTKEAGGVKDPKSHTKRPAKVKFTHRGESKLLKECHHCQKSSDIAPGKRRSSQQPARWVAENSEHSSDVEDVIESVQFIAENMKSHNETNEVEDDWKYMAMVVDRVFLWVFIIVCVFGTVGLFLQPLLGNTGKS
Sequence (Q9ERK7 26-501, chain 2 of 2, further chain): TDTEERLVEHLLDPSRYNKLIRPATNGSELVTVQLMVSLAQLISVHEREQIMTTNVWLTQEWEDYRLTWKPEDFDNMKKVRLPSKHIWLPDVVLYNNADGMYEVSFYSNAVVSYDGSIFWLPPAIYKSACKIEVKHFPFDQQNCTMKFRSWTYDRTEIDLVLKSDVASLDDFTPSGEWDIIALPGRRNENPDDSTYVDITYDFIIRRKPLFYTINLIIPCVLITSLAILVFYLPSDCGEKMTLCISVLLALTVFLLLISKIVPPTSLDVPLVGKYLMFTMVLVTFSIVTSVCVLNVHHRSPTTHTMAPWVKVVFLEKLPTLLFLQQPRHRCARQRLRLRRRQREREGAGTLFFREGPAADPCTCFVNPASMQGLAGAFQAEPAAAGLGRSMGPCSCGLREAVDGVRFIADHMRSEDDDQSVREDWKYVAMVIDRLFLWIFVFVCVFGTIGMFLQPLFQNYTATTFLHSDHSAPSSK

**Q.** For GCCSNPVCHLEHSNLC (modifications not checked) [α-conotoxin MII, P56636 49-64], which share of epibatidine binding sites sensitive to αCtxMII is on record?
**A.** 20%

— patent publication US20040006782A1
